{"source": "patent US9534237B2", "about": "“Sesquiterpene synthase gene and protein” (University of Kentucky Research Foundation, priority 2003, dated 2017)", "key": {"[1]": {"assay": "pH dependence assay of reaction product specificity (GC-MS)", "assay_type": "biochemical", "experimental": "Reactions to determine pH dependence were performed in glass GC-vials with 100 nM of purified enzyme, 20 mM MgCl2, 50 μM FPP (Echelon; Salt Lake City, Utah), and 100 mM buffer at various pH values; total reaction volume 500 μL. The buffers were chosen within one pH unit of the buffer's pKa (pH 5-5.5, acetate; pH 6-7, MES; pH 7.5-9, Tris; pH 9.5-10, ethanolamine; pH 10.5, CAPS). Reactions were allowed to proceed at room temperature for 30 min prior to overlaying with 500 μL of ethylacetate, vortexing for 10 sec, then direct analysis of the reaction products using an HP 6890 gas chromatograph with a 5973 mass spectrometer (Agilent Technologies, Palo Alto, Calif.) with an auto-sampler programmed to remove […] only from the organic phase. GC separations were performed on a 5%-phenyl-methylpolysiloxane column (J&M Scientific, Folsom, Calif.) of 30 m×0.25 mm i.d.×[…] with He as the carrier gas at 2 mL/min and a temperature gradient of 10° C./min from 50° C. (5-min hold) to 180° C. (4-min hold). GC/MS data was analyzed using HP-Chemstation software (version B.01.00) and integration of terpene peaks used for quantification."}, "[2]": {"assay": "Terpene synthase reaction product identification by GC-MS (incubation with FPP at pH 7.5)", "assay_type": "biochemical", "experimental": "Partially purified protein was subsequently incubated with FPP at pH 7.5 using typical sesquiterpene synthase reaction conditions and the pentane extractable products examined by GC-MS (FIG. 7). Two compounds accounting for greater than 95% of the total reaction products dominated the GC profiles and were identified as beta-elemene (30%) and valencene (65%) on the basis of MS matches with authentic standards. The beta-elemene peak most certainly represents a thermal rearrangement product of germacrene A resulting from high temperature injection into the GC.\nSmall scale reactions of 50 μL were used for screening purposes and rate determinations. Reactions typically contained 200 mM Tris-HCl, pH 7.5, 40 mM MgCl2, 0.5 μCi [1-3H]FPP, 25-30 μM FPP and 160 nM enzyme. For kinetic determinations, 10 μL aliquots of FPP (giving final concentrations of 0.7-23 μM) were rapidly mixed with 40 μL of enzyme solution at room temperature (23° C.) and allowed to incubate for 1 minute. The reactions were terminated by addition of 150 μL, of a 100 mM KOH, 0.5 M EDTA stop solution. Reactions were extracted with 500 μL of hexane and an aliquot was taken for determination of radiolabeled hydrophobic product via liquid scintillation counting. Hexane extracted samples were not subject to silica chromatography prior to counting because background was minimal and synthase mutants could possibly produce reaction products containing alcohols, which would bind to silica. Kinetic constants were determined from direct fits of the Michaelis-Menton equation to the data using Graphpad Prism 2.01 software.\nInitial synthase reaction products were examined by GC-MS. […] Pooled extracts were dried to 50 μL under a stream of nitrogen gas and 1 μL aliquots of this organic extract were analyzed by GC-MS using an HP-GCDplus (Hewlett-Packard, Palo Alto, Calif.) equipped with a DB-5 ms column, an injector temperature of 250° C. and the mass selective detector set to scan for ions within the range from 45 to 250 m/z. […]"}, "[3]": {"conditions": "partially purified protein incubated with FPP at pH 7.5, pentane extractable products, GC-MS"}}, "note": "“And” between values parts separate entries of the source, which are not always exact repeats. Identical values can stand only once."}
{"molecule": "CVS: citrus valencene synthase from Citrus paradisi, recombinant His-tagged protein expressed in E. coli, SEQ ID NO.: 4 (protein, His tag; Citrus X paradisi) MSSGETFRPTADFHPSLWRNHFLKGASDFKTVDHTATQERHEALKEEVRRMITDAEDKPVQKLRLIDEVQRLGVAYHFEKEIEDAILKLCPIYIDSNRADLHTVSLHFRLLRQQGIKISCDVFEKFKDDEGRFKSSLINDVQGMLSLYEAAYMAVRGEHILDEAIAFTTTHLKSLVAQDHVTPKLAEQINHALYRPLRKTLPRLEARYFMSMINSTSDHLYNKTLLNFAKLDFNILLEPHKEELNELTKWWKDLDFTTKLPYARDRLVELYFWDLGTYFEPQYAFGRKIMTQLNYILSIIDDTYDAYGTLEELSLFTEAVQRWNIEAVDMLPEYMKLIYRTLLDAFNEIEEDMAKQGRSHCVRYAKEENQKVIGAYSVQAKWFSEGYVPTIEEYMPIALTSCAYTFVITNSFLGMGDFATKEVFEWISNNPKVVKAASVICRLMDDMQGHEFEQKRGHVASAIECYTKQHGVSKEEAIKMFEEEVANAWKDINEELMMKPTVVARPLLGTILNLARAIDFIYKEDDGYTHSYLIKDQIASVLGDHVPF", "values": [{"measurement": "pH of transition from valencene to germacrene A as dominant reaction product", "setting": "[1]; FIG. 10", "value": "8.0 pH and ~8.2 pH"}, {"measurement": "pH of optimal germacrene A biosynthesis", "setting": "[1]; FIG. 10, FPP substrate", "value": 8.5, "unit": "pH"}, {"measurement": "pH of optimal valencene biosynthesis", "setting": "[1]; FIG. 10, FPP substrate", "value": 7.0, "unit": "pH"}, {"measurement": "valencene plus germacrene A (measured as β-elemene) as share of total reaction products", "setting": "[1]; at all pHs, ethylacetate extracts, GC-MS", "value": "greater than 95%"}, {"measurement": "germacrene A as reaction product", "setting": "[1]; between pH 6.0 to 7.0", "value": "virtually no germacrene A was detected"}, {"measurement": "beta-elemene plus valencene as share of total reaction products", "setting": "[2]; pH 7.5, GC profiles", "value": "greater than 95%"}, {"measurement": "beta-elemene (thermal rearrangement product of germacrene A) as share of total reaction products", "setting": "[2]; [3]", "value": 30, "unit": "%"}, {"measurement": "valencene as share of total reaction products", "setting": "[2]; [3]", "value": 65, "unit": "%"}]}
